# Source: PMC5112516
# Changes are numbered by the printed parent chain.
# Legend:
# Assay in all cases: tryptophan fluorescence quenching
# Settings in all cases: Fluorescence and EMSA: PBS (130 mM NaCl, 2.7 mM KCl, 10 mM Na2HPO4, 2 mM KH2PO4, pH 7.4), 25 C; ELISA: 10 mM KH2PO4, 50 mM KCl, pH 7, 0.1% Tween 20
# [1] = molecular target: T1, Aho7b (Acidianus hospitalis) (UniProt F4B9I5)
# T1 sequence: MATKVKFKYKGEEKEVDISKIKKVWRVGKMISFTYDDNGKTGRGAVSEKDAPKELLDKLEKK
# [2] = molecular target: T2, Aho7a (Acidianus hospitalis) (UniProt F4B991)
# T2 sequence: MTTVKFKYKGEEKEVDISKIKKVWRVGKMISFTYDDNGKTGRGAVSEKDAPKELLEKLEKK
# [3] = molecular target: T3, Ssh7a (Sulfolobus shibatae) (UniProt P61990)
# T3 sequence: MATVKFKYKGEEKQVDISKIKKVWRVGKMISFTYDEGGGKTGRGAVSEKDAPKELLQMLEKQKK
# [4] = molecular target: T4, Sac7e (Sulfolobus acidocaldarius) (UniProt P13125)
# T4 sequence: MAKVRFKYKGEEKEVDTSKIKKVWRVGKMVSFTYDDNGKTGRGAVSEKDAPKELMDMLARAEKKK
# [5] = molecular target: T5, Ssh7b (Sulfolobus shibatae) (UniProt O59632)
# T5 sequence: T3 sequence with A2V, Q14E, I17T
# Mcu7 = tested on: Mcu7
# [6] = molecular target: T6, Sso7d (Sulfolobus solfataricus) (UniProt P39476)
# T6 sequence: T3 sequence with Q14E
# Sto7 = tested on: Sto7
# Sis7b = tested on: Sis7b
# Mse7 = tested on: Mse7
# [7] = molecular target: T7, Sac7d (Sulfolobus acidocaldarius) (UniProt P13123)
# T7 sequence: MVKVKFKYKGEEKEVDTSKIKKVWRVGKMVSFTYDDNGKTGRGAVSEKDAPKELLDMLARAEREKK
# Sis7a = tested on: Sis7a
# [8] = molecular target: T8, Aho7c (Acidianus hospitalis) (UniProt F4B8X5)
# T8 sequence: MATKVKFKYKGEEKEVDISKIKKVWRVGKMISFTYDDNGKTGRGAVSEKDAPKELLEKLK
# [9] = molecular target: T7, Sac7d (Sulfolobus acidocaldarius); remark: listed apart in the source
substance,measurement,setting,value
"calf-thymus DNA (ct-DNA), sonicated",Kd,[1],13 µM
same,Kd,[2],16 µM
same,Kd,[3],18 µM
same,Kd,[4],11 µM
same,Kd,[5],22 µM
same,Kd,Mcu7,16 µM
same,Kd,[6],17 µM
same,Kd,Sto7,14 µM
same,Kd,Sis7b,16 µM
same,Kd,Mse7,15 µM
same,Kd,[7],13 µM
same,Kd,Sis7a,15 µM
same,Kd,[8],16 µM
same,Kd,[9],0.203 µM
